From patent US20260008817A1, “CYCLIC PEPTIDE OR SALT THEREOF, AND USES THEREOF” (FUJIFILM Corporation, priority 2023, published 2026) come the findings set out here.

Positions of bridges follow the written chain, without caps; N, C: chain ends. No end group written: not given here. COCH2 = acetyl group that carries the bridge

For the assay, the target named is T1, Recombinant Human FGFR1 alpha (IIIc) Fc Chimera Protein (Homo sapiens, UniProt P11362).
T1 construct: purchased R&D systems 658-FR-050
T1 sequence (P11362 with tags, fused parts or gaps limits assumed): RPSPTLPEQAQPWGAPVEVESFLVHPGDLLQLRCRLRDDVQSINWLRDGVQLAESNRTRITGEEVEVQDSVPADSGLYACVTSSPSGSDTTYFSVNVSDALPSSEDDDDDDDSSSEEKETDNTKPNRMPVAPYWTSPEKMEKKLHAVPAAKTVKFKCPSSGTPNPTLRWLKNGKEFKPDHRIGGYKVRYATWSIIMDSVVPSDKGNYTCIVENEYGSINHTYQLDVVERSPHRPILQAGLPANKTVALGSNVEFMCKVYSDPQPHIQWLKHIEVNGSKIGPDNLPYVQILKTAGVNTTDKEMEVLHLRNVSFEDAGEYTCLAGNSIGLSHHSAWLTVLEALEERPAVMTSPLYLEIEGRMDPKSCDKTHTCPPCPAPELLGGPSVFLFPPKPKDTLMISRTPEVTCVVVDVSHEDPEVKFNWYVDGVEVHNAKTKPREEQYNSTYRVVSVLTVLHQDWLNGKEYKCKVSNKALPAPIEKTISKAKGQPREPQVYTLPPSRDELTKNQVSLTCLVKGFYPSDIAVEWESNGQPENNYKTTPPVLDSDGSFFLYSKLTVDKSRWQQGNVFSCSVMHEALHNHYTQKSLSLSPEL
Description: ELISA binding affinity of enzymatically synthesized peptide to FGFR. The note with it: ELISA luminescence signal at 10 nmol/L peptide, SEQ ID NO: 239 standardized to 1; enzyme synthesis product. The method, boiled down:
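Cell-free PUREfrex-translated cyclic peptides (Myc/HiBiT-tagged, quantified by HiBiT luminescence) bound 3 h at room temperature to immobilized FGFR1α(IIIc)-Fc, detected with anti-Myc and chemiluminescence. FGFR-specific signal at 10 nmol/L normalized to a reference cyclic peptide and graded A–D.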
A general note: ELISA stands for enzyme-linked immunosorbent assay.
Turning to “241 (HCKLYSYPLWYWPKWVFQTK(COCH2)E; thioether 2-20 (inferred)) [compound 241]”, the “Evaluation result of binding affinity to FGFR” value (“Evaluation result” for short) is “C (0.1 or more and less than 0.5)”. As for “242 (ACGVHQWEIGEWFGYRYYYK(COCH2)P; thioether 2-20 (inferred)) [compound 242]”, the “Evaluation result” value is “B (0.5 or more and less than 0.7)”. Then “243 (QCYLPSWFYQKARLLFQYIK(COCH2)S; thioether 2-20 (inferred)) [compound 243]”, with “C (0.1 or more and less than 0.5)”; and “244 (DCTQGKILTYSQALFSFGVK(COCH2)I; thioether 2-20 (inferred)) [compound 244]”, with “A (0.7 or more)”; and “245 (NCVYYAKPVFAHANRVWTYIK(COCH2)I; thioether 2-21 (inferred)) [compound 245]”, with “A (0.7 or more)”. Then “246 (PCIYTFDQSAIKYKIGFVLRK(COCH2)V; thioether 2-21 (inferred)) [compound 246]”, with “C (0.1 or more and less than 0.5)”. In the case of “248 (QCWLQGPYWSDIKIYIYQHDK(COCH2)Y; thioether 2-21 (inferred)) [compound 248]”, the “Evaluation result” value is “C (0.1 or more and less than 0.5)”. “249 (VCVRPIFIFSFRAPFNAVDWK(COCH2)I; thioether 2-21 (inferred)) [compound 249]”: the “Evaluation result” value is “C (0.1 or more and less than 0.5)”. For the substance “251 (TCWTAWQWFGHWVPFVAK(COCH2)T; thioether 2-18 (inferred)) [compound 251]”, the “Evaluation result” value was “C (0.1 or more and less than 0.5)”. Then “252 (RCVYSFDPARYPYHLKK(COCH2)V; thioether 2-17 (inferred)) [compound 252]”, with “A (0.7 or more)”; and “253 (TCFSPGQIWIWTHLVTAIRNK(COCH2)T; thioether 2-21 (inferred)) [compound 253]”, with “B (0.5 or more and less than 0.7)”; and “254 (LCVYTFNWQQKFGHHLTK(COCH2)I; thioether 2-18 (inferred)) [compound 254]”, with “C (0.1 or more and less than 0.5)”.

Take “255 (FCTLWQFGNLVWTHESPFIK(COCH2)Q; thioether 2-20 (inferred)) [compound 255]”: the “Evaluation result” value was “C (0.1 or more and less than 0.5)”. “256 (DCVYQYDRNAHYWDTALVK(COCH2)V; thioether 2-19 (inferred)) [compound 256]”: the “Evaluation result” value was “A (0.7 or more)”. Turning to “257 (FCAWVVDYQELHQFWSIVQK(COCH2)I; thioether 2-20 (inferred)) [compound 257]”, the “Evaluation result” value was “C (0.1 or more and less than 0.5)”. As for “258 (VCVRPIFIFSFRAPFNAVDWK(COCH2)N; thioether 2-21 (inferred)) [compound 258]”, the “Evaluation result” value was “A (0.7 or more)”.

As to “259 (TCNIWQFNPAARWGFHLVYK(COCH2)Y; thioether 2-20 (inferred)) [compound 259]”, the “Evaluation result” value was “C (0.1 or more and less than 0.5)”. Consider “260 (ICREVIVGSLYTWDGNRGFFKV; Description of Artificial Sequence: Cyclic peptide) [compound 260]”, for which the “Evaluation result” value is “C (0.1 or more and less than 0.5)”. The same measure for “261 (LCYINLFTHTKV; Description of Artificial Sequence: Cyclic peptide) [compound 261]”: “C (0.1 or more and less than 0.5)”. As to “262 (WCNFANVWTFNKS; Description of Artificial Sequence: Cyclic peptide) [compound 262]”, the “Evaluation result” value is “C (0.1 or more and less than 0.5)”. On to “263 (QCYHIIVYTFVKP; Description of Artificial Sequence: Cyclic peptide) [compound 263]”, for which the “Evaluation result” value was “C (0.1 or more and less than 0.5)”. In the case of “264 (VCIFTWDRVHWPVKV; Description of Artificial Sequence: Cyclic peptide) [compound 264]”, the “Evaluation result” value is “C (0.1 or more and less than 0.5)”. On to “265 (VCIYTWDRQSWPVKL; Description of Artificial Sequence: Cyclic peptide) [compound 265]”, for which the “Evaluation result” value is “B (0.5 or more and less than 0.7)”. For the substance “266 (DCIWQWHPWSGYTKL; Description of Artificial Sequence: Cyclic peptide) [compound 266]”, the “Evaluation result” value is “A (0.7 or more)”.

As to “267 (DCIWQWTPTKSFQKL; Description of Artificial Sequence: Cyclic peptide) [compound 267]”, the “Evaluation result” value is on record as “A (0.7 or more)”. “268 (SCIYQWDYVHWPIKL; Description of Artificial Sequence: Cyclic peptide) [compound 268]”: the “Evaluation result” value was “C (0.1 or more and less than 0.5)”.

For “269 (HCLWQWTPQTHFVKL; Description of Artificial Sequence: Cyclic peptide) [compound 269]”, the “Evaluation result” value was “A (0.7 or more)”. As to “270 (QCWWTLQVWSYPFHKH; Description of Artificial Sequence: Cyclic peptide) [compound 270]”, the “Evaluation result” value was “C (0.1 or more and less than 0.5)”. Then “271 (LCQLGVYTYVALFYKF; Description of Artificial Sequence: Cyclic peptide) [compound 271]”, with “C (0.1 or more and less than 0.5)”; and “272 (QCDWVIWQWDPPYIKV; Description of Artificial Sequence: Cyclic peptide) [compound 272]”, with “C (0.1 or more and less than 0.5)”; and “273 (PCWWATQIWTYPFYKV; Description of Artificial Sequence: Cyclic peptide) [compound 273]”, with “C (0.1 or more and less than 0.5)”. “274 (FCIYTFSRESGLLWKQ; Description of Artificial Sequence: Cyclic peptide) [compound 274]”: the “Evaluation result” value is reported as “A (0.7 or more)”.

With “275 (LCPLYAWQTLYQYGWK(COCH2)V; thioether 2-16 (inferred)) [compound 275]”, the “Evaluation result” value is listed as “A (0.7 or more)”.

As to “276 (ECIYTFDPQRHPVLVK(COCH2)V; thioether 2-16 (inferred)) [compound 276]”, the “Evaluation result” value was “C (0.1 or more and less than 0.5)”. Take “277 (TCPVWAWHQAFQFGWK(COCH2)I; thioether 2-16 (inferred)) [compound 277]”: the “Evaluation result” value was “C (0.1 or more and less than 0.5)”.

“278 (ICPLYGDQGQAWQYGWK(COCH2)L; thioether 2-17 (inferred)) [compound 278]”: the “Evaluation result” value is recorded as “A (0.7 or more)”.

Regarding “279 (QCLQKVGYLLWQFGWSK(COCH2)I; thioether 2-17 (inferred)) [compound 279]”, the “Evaluation result” value is “C (0.1 or more and less than 0.5)”. Then “280 (PCPVWGDYGAVHQYGWK(COCH2)V; thioether 2-17 (inferred)) [compound 280]”, with “A (0.7 or more)”; and “281 (YCVYTFDAQDVWRPLRK(COCH2)V; thioether 2-17 (inferred)) [compound 281]”, with “C (0.1 or more and less than 0.5)”; and “282 (FCIYSWNWNNLVRPEFRK(COCH2)V; thioether 2-18 (inferred)) [compound 282]”, with “C (0.1 or more and less than 0.5)”. Regarding “283 (WCWLIPTPWPGVYQFSPK(COCH2)A; thioether 2-18 (inferred)) [compound 283]”, the “Evaluation result” value was “B (0.5 or more and less than 0.7)”. For the substance “284 (QCRITLLTIYQWKYAWHK(COCH2)E; thioether 2-18 (inferred)) [compound 284]”, the “Evaluation result” value is “C (0.1 or more and less than 0.5)”. With “285 (QCSWWYVQVWTYPFHVLK(COCH2)G; thioether 2-18 (inferred)) [compound 285]”, the “Evaluation result” value was “C (0.1 or more and less than 0.5)”. The same measure for “286 (HCLWSLHSFYTFKAWAK(COCH2)I; thioether 2-17 (inferred)) [compound 286]”: “C (0.1 or more and less than 0.5)”; for “287 (YCPFEVYSWWVPKWHK(COCH2)I; thioether 2-16 (inferred)) [compound 287]”: “C (0.1 or more and less than 0.5)”; for “288 (LCHLVFQFNPDTGKLWPK(COCH2)Y; thioether 2-18 (inferred)) [compound 288]”: “C (0.1 or more and less than 0.5)”.

“289 (DCPWSVFSWYIPIYNK(COCH2)I; thioether 2-16 (inferred)) [compound 289]”: the “Evaluation result” value is “C (0.1 or more and less than 0.5)”.

For “290 (FCVYTFDANAQSLDDALNK(COCH2)Q; thioether 2-19 (inferred)) [compound 290]”, the “Evaluation result” value is reported as “A (0.7 or more)”. Turning to “291 (ICVYTFDAHAHSLDDALTK(COCH2)I; thioether 2-19 (inferred)) [compound 291]”, the “Evaluation result” value was “A (0.7 or more)”. On to “292 (ICVYTFDAHAHSLDAALNKI; not fully specified (residue 19, bridges)) [compound 292]”, for which the “Evaluation result” value is on record as “A (0.7 or more)”.
